Measurements published in patent US20240166737A1 (Janssen / Centocor, published 2024).
“And” between values parts separate entries of the source, which are not always exact repeats. Equal values may be shown once.

Columns and labels:
[1] = molecular target: T1, MSNW11, recombinant soluble (shed) MSLN lacking the C-terminal 7 AAs (human, UniProt Q13421 296-591); test: SPR
T1 construct: domain: soluble MSLN lacking the C-terminal 7 AAs; also called MSNW11.002; soluble MSLN

[2] = molecular target: T2, recombinant CD3 (UniProt P07766 23-126); test: SPR, recombinant CD3
T2 construct: also called CD3 (SPR)
T2 sequence (P07766 23-126): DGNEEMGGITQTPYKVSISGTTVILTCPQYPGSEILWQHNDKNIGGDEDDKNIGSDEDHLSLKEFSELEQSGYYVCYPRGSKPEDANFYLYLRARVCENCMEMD

[3] = molecular target: T3, MSLN with Met593Val on cells homozygous for SNP rs1135210 (SNP G|G) (human, UniProt Q13421 296-598); test: binding to homozygous SNP-positive cells
T3 construct: also called homozygous SNP-positive cells; BxPC3, NCI-H322
T3 sequence (Q13421 other isoform, or with tags, fused parts or gaps M593V M593V limits assumed): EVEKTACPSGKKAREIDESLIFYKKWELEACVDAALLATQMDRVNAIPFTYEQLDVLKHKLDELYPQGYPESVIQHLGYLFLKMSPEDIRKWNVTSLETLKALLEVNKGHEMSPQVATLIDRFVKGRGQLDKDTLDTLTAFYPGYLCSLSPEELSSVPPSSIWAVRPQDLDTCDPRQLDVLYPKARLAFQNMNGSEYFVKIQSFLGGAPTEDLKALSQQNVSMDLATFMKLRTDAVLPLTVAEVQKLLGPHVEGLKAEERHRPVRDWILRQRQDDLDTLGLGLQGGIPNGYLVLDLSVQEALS

[4] = molecular target: T4, CD3 epsilon on human T-cells (human, UniProt P07766 23-207); test: 1-hour 37 °C T-cell binding assay
T4 construct: part of the TCR-CD3 complex on T cells; also called CD3 on T cells
T4 sequence (P07766 23-207 limits assumed): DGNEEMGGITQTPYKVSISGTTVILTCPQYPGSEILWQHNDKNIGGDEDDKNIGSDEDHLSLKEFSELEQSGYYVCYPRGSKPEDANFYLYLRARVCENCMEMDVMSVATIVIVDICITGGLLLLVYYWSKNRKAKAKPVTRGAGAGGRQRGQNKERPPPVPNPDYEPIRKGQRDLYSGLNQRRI

[5] = molecular target: T2, recombinant CD3; test: SPR after forced degradation; after pH 5 (Iso) forced degradation
[6] = molecular target: T5, MSNW10, recombinant full length human MSLN (human, UniProt Q13421 296-598); test: as above
T5 construct: also called MSNW10.002; FL-MSLN
T5 sequence (Q13421 other isoform, or with tags, fused parts or gaps limits assumed): as the sequence (Q13421 other isoform, or with tags, fused parts or gaps M593V M593V limits assumed) above, with V298M counted along it

[7] = molecular target: T6, mouse CD3 (mouse, UniProt P22646 22-108); test: not described (study MSLN-00922)
T6 construct: also called corresponding mouse antigen
T6 sequence (looked up): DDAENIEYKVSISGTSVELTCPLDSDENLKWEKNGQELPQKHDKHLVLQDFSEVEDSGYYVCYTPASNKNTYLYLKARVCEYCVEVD

[8] = molecular target: T7, mouse MSLN (mouse, UniProt Q61468 298-600, limits assumed); test: not described (study MSLN-00922)
T7 construct: also called corresponding mouse antigen
T7 sequence (looked up): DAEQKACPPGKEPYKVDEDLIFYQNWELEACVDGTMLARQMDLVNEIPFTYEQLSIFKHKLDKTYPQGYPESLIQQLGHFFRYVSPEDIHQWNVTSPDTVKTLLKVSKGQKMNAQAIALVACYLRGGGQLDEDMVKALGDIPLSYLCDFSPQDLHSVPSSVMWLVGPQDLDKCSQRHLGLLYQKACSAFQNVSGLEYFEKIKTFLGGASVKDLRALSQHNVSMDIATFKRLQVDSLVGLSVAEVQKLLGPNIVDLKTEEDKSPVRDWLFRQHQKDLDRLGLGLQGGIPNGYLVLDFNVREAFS

[9] = molecular target: human MSLN on the cell surface (human, UniProt Q13421 296-598); test: cell-based or functional assay
Chain of human MSLN on the cell surface (Q13421 other isoform, or with tags, fused parts or gaps limits assumed): as the sequence (Q13421 other isoform, or with tags, fused parts or gaps M593V M593V limits assumed) above, with V298M counted along it

[10] = molecular target: T5, MSNW10, recombinant full length human …; test: SPR, recombinant full-length human MSLN
[11] = molecular target: T2, recombinant CD3; test: SPR after forced degradation
[12] = molecular target: T5, MSNW10, recombinant full length human …; test: SPR after forced degradation

T1 sequence (Q13421 other isoform, or with tags, fused parts or gaps limits assumed): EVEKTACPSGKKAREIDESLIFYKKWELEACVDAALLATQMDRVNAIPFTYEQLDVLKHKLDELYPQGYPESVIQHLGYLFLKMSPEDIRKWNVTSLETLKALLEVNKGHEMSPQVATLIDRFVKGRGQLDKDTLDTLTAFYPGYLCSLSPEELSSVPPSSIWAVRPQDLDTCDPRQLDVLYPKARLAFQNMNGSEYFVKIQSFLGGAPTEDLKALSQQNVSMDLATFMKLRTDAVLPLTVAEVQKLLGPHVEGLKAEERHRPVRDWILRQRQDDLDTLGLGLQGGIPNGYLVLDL

binding result [1]: no binding
Kd [2]: 0.12 nM
binding result [3]: no binding
EC50 [4]: > 100 nM
Kd [5]: 0.13 nM
Kd [6]: 4.7 nM
binding result [7]: no binding
binding result [8]: no binding
Kd [10]: 4.64 nM
Kd [11]: 0.13 nM and 0.17 nM and 0.14 nM
Kd [12]: 5.22 nM and 4.92 nM and 4.76 nM and 5.03 nM
B1: MNC3B304 (bispecific antibody, human IgG1, kappa, L234A L235A)
scFv: DIQMTQSPSSLSASVGDRVTITCRARQSIGTAIHWYQQKPGKAPKLLIKYASESISGVPSRFSGSGSGTDFTLTISSLQPEDFATYYCQQSGSWPYTFGQGTKLEIKGGSEGKSSGSGSESKSTGGSEVQLVESGGGLVKPGGSLRLSCAASGFTFSRYNMNWVRQAPGKGLEWVSSISTSSNYIYYADSVKGRFTFSRDNAKNSLDLQMSGLRAEDTAIYYCTRGWGPFDYWGQGTLVTVSSEPKSSDKTHTCPPCPAPEAAGGPSVFLFPPKPKDTLMISRTPEVTCVVVSVSHEDPEVKFNWYVDGVEVHNAKTKPREEQYNSTYRVVSVLTVLHQDWLNGKEYKCKVSNKALPAPIEKTISKAKGQPREPQVYTLPPSREEMTKNQVSLWCLVKGFYPSDIAVEWESNGQPENNYKTTPPVLDSDGSFFLYSKLTVDKSRWQQGNVFSCSVMHEALHNHYTQKSLSLSPGK
heavy: QVQLVESGPGQVKPSQTLSLTCAISGDSVSSNSAAWNWIRQSPSRGLEWLGRTYYRSKWYNDYAVSVKSRITINPDTSKNQFSLQLNSVTPEDTAVYYCARRDYSSGGFDYWGQGTTVTVSSASTKGPSVFPLAPSSKSTSGGTAALGCLVKDYFPEPVTVSWNSGALTSGVHTFPAVLQSSGLYSLSSVVTVPSSSLGTQTYICNVNHKPSNTKVDKKVEPKSCDKTHTCPPCPAPEAAGGPSVFLFPPKPKDTLMISRTPEVTCVVVSVSHEDPEVKFNWYVDGVEVHNAKTKPREEQYNSTYRVVSVLTVLHQDWLNGKEYKCKVSNKALPAPIEKTISKAKGQPREPQVYTLPPSREEMTKNQVSLSCAVKGFYPSDIAVEWESNGQPENNYKTTPPVLDSDGSFFLVSKLTVDKSRWQQGNVFSCSVMHEALHNRFTQKSLSLSPGK
light: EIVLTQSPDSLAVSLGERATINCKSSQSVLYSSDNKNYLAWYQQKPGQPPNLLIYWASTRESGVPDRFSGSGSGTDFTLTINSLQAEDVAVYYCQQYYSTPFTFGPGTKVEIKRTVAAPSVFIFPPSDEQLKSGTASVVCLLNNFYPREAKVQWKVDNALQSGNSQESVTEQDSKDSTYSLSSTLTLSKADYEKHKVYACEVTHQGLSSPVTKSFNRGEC
notes: also called mrMSLN-MSNB457 x W245LH, KiH; CD3W245 LH containing Bipod
cytotoxicity EC50, OVCAR-8 K1/C8 MSLN medium cells, Incucyte 72 hours, 1:1 E:T [9]: 1.2 nM
cytotoxicity EC50, OVCAR-8 MSLN high cells, Incucyte 72 hours, 1:1 E:T [9]: 0.24 nM
cytotoxicity EC50, SK-OV-3 MSLN low cells, Incucyte 72 hours, 1:1 E:T [9]: 103 nM
